# Laboratory results reported in the Immune Epitope Database (IEDB).
# Columns and labels:
# [1] = target: HLA-A*32:01; test: IEDB peptide-MHC binding, purified MHC/competitive/radioactivity; filed as Kd, often an IC50 or EC50 that approximates it; ≥ and ≤ were set here for values at or beyond the usual limits of such assays
# [2] = target: HLA-A*30:01; test: as above
# [3] = target: HLA-B*40:01; test: as above; details: source organism: Dengue virus 2 Jamaica/1409/1983
# [4] = target: HLA-B*44:02; test: as above; details: source organism: Dengue virus 2 Jamaica/1409/1983
# [5] = target: HLA-B*44:03; test: as above; details: source organism: Dengue virus 2 Jamaica/1409/1983
# [6] = target: HLA-A*02:01; test: IEDB peptide-MHC binding, purified MHC/competitive/fluorescence; filed as Kd, often an IC50 or EC50 that approximates it; ≥ and ≤ were set here for values at or beyond the usual limits of such assays
# [7] = target: HLA-A*01:01; test: IEDB peptide-MHC binding, purified MHC/competitive/radioactivity; filed as Kd, often an IC50 or EC50 that approximates it; ≥ and ≤ were set here for values at or beyond the usual limits of such assays
# [8] = target: HLA-A*26:01; test: as above
# [9] = target: HLA-A*29:02; test: as above
# [10] = target: HLA-A*30:02; test: as above
# [11] = target: HLA-B*07:02; test: as above
# [12] = target: HLA-A*01:01; test: IEDB peptide-MHC binding, purified MHC/direct/fluorescence; filed as Kd, often an IC50 or EC50 that approximates it; ≥ and ≤ were set here for values at or beyond the usual limits of such assays; details: source organism: Mycobacterium tuberculosis variant bovis BCG str. Pasteur 1173P2
# [13] = target: HLA-A*26:01; test: as above; details: source organism: Mycobacterium tuberculosis
# [14] = target: HLA-A*68:02; test: IEDB peptide-MHC binding, purified MHC/competitive/radioactivity; filed as Kd, often an IC50 or EC50 that approximates it; ≥ and ≤ were set here for values at or beyond the usual limits of such assays
# [15] = target: HLA-B*51:01; test: as above
# [16] = target: HLA-A*02:02; test: as above
# [17] = target: HLA-A*02:03; test: as above
# [18] = target: HLA-A*02:06; test: as above
# [19] = target: HLA-B*35:01; test: as above
# [20] = target: HLA-A*02:01; test: as above
# [21] = target: HLA-B*53:01; test: as above
# [22] = target: HLA-A*03:01; test: as above
# [23] = target: HLA-A*31:01; test: as above; details: source organism: Mammarenavirus whitewaterense
# [24] = target: HLA-A*33:01; test: as above; details: source organism: Mammarenavirus whitewaterense
# [25] = target: HLA-A*68:01; test: as above; details: source organism: Mammarenavirus whitewaterense
# [26] = target: HLA-B*08:01; test: as above; details: source organism: Vaccinia virus WR
# [27] = source organism: Dengue virus 2 Jamaica/1409/1983
# [28] = source organism: Dengue virus 3 Martinique/1243/1999
# [29] = source organism: Mammarenavirus guanaritoense
# [30] = source organism: Dengue virus 1 Brazil/97-11/1997
# [31] = source organism: Mammarenavirus brazilense
# [32] = source organism: Trypanosoma cruzi
# [33] = source organism: Dengue virus 4 Dominica/814669/1981
# [34] = source organism: Dengue virus 4 Philippines/H241/1956
# [35] = source organism: Lassa virus Josiah
# [36] = source organism: Vaccinia virus WR
# [37] = source organism: Vaccinia virus Copenhagen
# [38] = source organism: Mammarenavirus lassaense
# [39] = source organism: Mammarenavirus juninense
# [40] = source organism: Lymphocytic choriomeningitis virus (strain Armstrong)
# [41] = source organism: Mammarenavirus whitewaterense
# [42] = source organism: Dengue virus 2 Peru/IQT2913/1996
# [43] = source organism: Hepatitis C virus (isolate Th580)
sequence,measurement,setting,value
AAAWYLWEVK,Kd,[1]; [27],2060 nM
AEISGSSPIL,Kd,[2]; [27],16100 nM
same,Kd,[3],1.04 nM
same,Kd,[4],6.16 nM
same,Kd,[5],6.75 nM
ATFKIQPFL,Kd,[2]; [28],361 nM
AVAANIVLTV,Kd,[6]; source organism: Homo sapiens,207 nM
AVFQPSTGNY,Kd,[7]; [29],≥ 27600 nM
same,Kd,[8]; [29],776 nM
same,Kd,[9]; [29],819 nM
same,Kd,[2]; [29],12400 nM
same,Kd,[10]; [29],21.5 nM
same,Kd,[1]; [29],≥ 69900 nM
CTREEFTRK,Kd,[2]; [27],64.4 nM
DPRRCLKPV,Kd,[11]; [30],225 nM
DTRTQTWMSA,Kd,[1]; [28],5740 nM
DVAAMSGYY,Kd,[12],318 nM
same,Kd,[13],3 nM
EMFKTKGRY,Kd,[7]; [31],≥ 32000 nM
same,Kd,[8]; [31],650 nM
same,Kd,[9]; [31],11500 nM
same,Kd,[2]; [31],8950 nM
same,Kd,[10]; [31],131 nM
same,Kd,[1]; [31],≥ 77800 nM
EVKKQRAGV,Kd,[8]; [27],9120 nM
same,Kd,[14]; [27],61.6 nM
FAAGLLLRKL,Kd,[15]; [27],11600 nM
FANNKFTLV,Kd,[16]; [32],64.1 nM
same,Kd,[17]; [32],1.36 nM
same,Kd,[18]; [32],3.05 nM
same,Kd,[14]; [32],75 nM
FLEQQNKIL,Kd,[14]; source organism: Homo sapiens,≥ 136000 nM
FTILALFLAH,Kd,[8]; [28],≥ 20900 nM
same,Kd,[19]; [28],≥ 24900 nM
FTVQADMGCV,Kd,[18]; [33],110 nM
same,Kd,[14]; [33],3.55 nM
same,Kd,[15]; [33],≥ 59200 nM
FVDYNFSLV,Kd,[16]; [32],0.503 nM
same,Kd,[17]; [32],4.24 nM
same,Kd,[18]; [32],0.655 nM
same,Kd,[14]; [32],75.5 nM
GITRPTTLV,Kd,[20]; [32],≥ 92600 nM
same,Kd,[16]; [32],13700 nM
same,Kd,[17]; [32],1150 nM
same,Kd,[18]; [32],12200 nM
same,Kd,[14]; [32],11900 nM
GKTRRYLPAI,Kd,[2]; [30],670 nM
GPVLTLWEGN,Kd,[1]; [34],1550 nM
HPGFTVIAL,Kd,[11]; [30],3.14 nM
same,Kd,[19]; [30],1.54 nM
same,Kd,[21]; [30],29.4 nM
HVGRPTTVV,Kd,[20]; [32],9860 nM
same,Kd,[16]; [32],1060 nM
same,Kd,[17]; [32],452 nM
same,Kd,[18]; [32],639 nM
same,Kd,[14]; [32],21.1 nM
IALSVLAVL,Kd,[20]; [35],1920 nM
IIFFIVLIL,Kd,[1]; [36],12.2 nM
IISLWDQSL,Kd,[20]; source organism: HIV-1 M:B_MN,279 nM
ILPVIFLSI,Kd,[1]; [36],4.49 nM
IPNHGVTAT,Kd,[19]; [34],2280 nM
ISRFANLIK,Kd,[2]; [36],13.4 nM
ITLFLILCY,Kd,[1]; [36],1800 nM
ITVYFRRTI,Kd,[1]; [36],25.9 nM
KLGFEEIKGL,Kd,[6]; [37],30.6 nM
KLYTIVSTL,Kd,[1]; [36],7.12 nM
KQNMLHVII,Kd,[1]; [36],2.12 nM
KSRLNALGK,Kd,[22]; [27],11.3 nM
same,Kd,[2]; [27],3.44 nM
KTGECSKCY,Kd,[7]; [38],12800 nM
same,Kd,[8]; [38],≥ 77900 nM
same,Kd,[9]; [38],10200 nM
same,Kd,[2]; [38],18600 nM
same,Kd,[10]; [38],834 nM
same,Kd,[1]; [38],6790 nM
KVFVPAPFG,Kd,[2]; [36],6.64 nM
KVLRPTPRG,Kd,[2]; [33],300 nM
LAGLFIDAGY,Kd,[7]; [39],1640 nM
same,Kd,[8]; [39],≥ 43600 nM
same,Kd,[9]; [39],54.3 nM
same,Kd,[2]; [39],12500 nM
same,Kd,[10]; [39],171 nM
same,Kd,[1]; [39],14900 nM
LPDTIETLM,Kd,[19]; [30],818 nM
same,Kd,[15]; [30],19000 nM
same,Kd,[21]; [30],428 nM
LPPEKCDTL,Kd,[15]; [28],7730 nM
LTNEIYASI,Kd,[1]; [36],12.9 nM
LTYSQLMTL,Kd,[20]; [35],227 nM
same,Kd,[16]; [35],11.1 nM
same,Kd,[17]; [35],7.81 nM
same,Kd,[18]; [35],57.8 nM
same,Kd,[14]; [35],103 nM
LTYVVIAILT,Kd,[14]; [27],173 nM
MADVPLQWI,Kd,[15]; source organism: Dengue virus 3 Singapore/8120/1995,2270 nM
MAVGMVSIL,Kd,[19]; [27],10.3 nM
MPVMKRYSAP,Kd,[11]; [34],9340 nM
same,Kd,[19]; [34],502 nM
same,Kd,[15]; [34],≥ 69600 nM
same,Kd,[21]; [34],16000 nM
MPVTVASAA,Kd,[11]; [30],120 nM
same,Kd,[19]; [30],8.14 nM
MQRIISLSV,Kd,[2]; [36],8.81 nM
MTMILFLKL,Kd,[1]; [36],248 nM
MTNGKINSL,Kd,[1]; [36],22.3 nM
MTTEDMLKV,Kd,[7]; [34],≥ 22800 nM
same,Kd,[14]; [34],41.8 nM
MVNGVVKLL,Kd,[14]; source organism: Dengue virus 1 Singapore/S275/1990,60.2 nM
NANAYSGKY,Kd,[7]; [40],515 nM
same,Kd,[8]; [40],4310 nM
same,Kd,[9]; [40],1070 nM
same,Kd,[2]; [40],≥ 37600 nM
same,Kd,[10]; [40],2.71 nM
same,Kd,[1]; [40],≥ 50000 nM
NLPIYSEEI,Kd,[20]; source organism: Homo sapiens,66.6 nM
same,Kd,[16]; source organism: Homo sapiens,77.1 nM
same,Kd,[17]; source organism: Homo sapiens,390 nM
same,Kd,[18]; source organism: Homo sapiens,27.5 nM
same,Kd,[14]; source organism: Homo sapiens,39.3 nM
QPHQLWTTL,Kd,[11]; [30],3.43 nM
RFASALTAL,Kd,[11]; [27],324 nM
RGRLLAAGK,Kd,[2]; [36],125 nM
RHRKPTYEK,Kd,[2]; [34],24.5 nM
RLSSNSRIL,Kd,[20]; source organism: Hepatitis B virus,≥ 10000 nM
RQMATTTNPLI,Kd,[6]; source organism: Influenza A virus (A/parakeet/Chiba/1/97(H9N2)),13 nM
RTKPISMYF,Kd,[2]; [37],0.598 nM
RTKSKILFG,Kd,[2]; [36],10 nM
RVPNYNLII,Kd,[1]; [27],148 nM
SGIFVTNEV,Kd,[14]; [30],46.9 nM
SLLMWITQC,Kd,[20]; source organism: Homo sapiens,≥ 21100 nM
SLTCEVDAL,Kd,[14]; source organism: Homo sapiens,3120 nM
SSIIRSLPK,Kd,[22]; [41],39 nM
same,Kd,[2]; [41],180 nM
same,Kd,[23],1720 nM
same,Kd,[24],≥ 39400 nM
same,Kd,[25],223 nM
STRDGEPLM,Kd,[8]; [34],8190 nM
same,Kd,[2]; [34],71.6 nM
STRVPNYNL,Kd,[2]; [34],6.26 nM
SVSLVLVGV,Kd,[14]; [27],1.05 nM
SYRTRAINK,Kd,[2]; [36],1020 nM
TLKQRLTNL,Kd,[6]; [36],1390 nM
same,Kd,[26],1.74 nM
TMEAMRIMGI,Kd,[14]; source organism: Homo sapiens,21.9 nM
TPMMRHTIEN,Kd,[11]; [30],1940 nM
TPVESWEEI,Kd,[15]; [42],10500 nM
same,Kd,[21]; [42],157 nM
TTAKEVALL,Kd,[8]; [34],1900 nM
same,Kd,[14]; [34],21.8 nM
VLSDFKTWL,Kd,[16]; [43],263 nM
same,Kd,[17]; [43],290 nM
same,Kd,[18]; [43],≥ 29500 nM
same,Kd,[14]; [43],≥ 57400 nM
VQVLALEPGK,Kd,[2]; [27],2520 nM
WAYHGSYEA,Kd,[19]; [34],167 nM
WLWYIKIFI,Kd,[20]; source organism: HIV-1 M:B_MN,141 nM
WPLHRMDLGV,Kd,[15]; [34],3280 nM
YMMNIYLNF,Kd,[1]; [36],2.93 nM
YPLAIPVTM,Kd,[11]; [34],44.6 nM
same,Kd,[19]; [34],1.93 nM
same,Kd,[15]; [34],38.7 nM
same,Kd,[21]; [34],3.47 nM
YVVIGILTLA,Kd,[18]; [28],47.4 nM
same,Kd,[14]; [28],123 nM
